Experimental data: publication PMC3172200 (PLoS Biology, 2011)
Where no end group is shown, it is not given here. [ ]: non-standard residue; d: D form.

T1: recombinant wild type SEB with N-terminal His6-tag (S. aureus COL, UniProt P01552 28-266)
T1 sequence: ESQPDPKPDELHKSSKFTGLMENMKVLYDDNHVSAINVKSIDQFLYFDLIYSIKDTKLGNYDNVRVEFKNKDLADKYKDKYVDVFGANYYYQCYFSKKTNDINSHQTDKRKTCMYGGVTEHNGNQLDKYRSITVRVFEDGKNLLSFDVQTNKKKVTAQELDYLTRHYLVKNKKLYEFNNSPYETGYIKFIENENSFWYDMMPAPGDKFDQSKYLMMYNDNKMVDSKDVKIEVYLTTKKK


Target: T1, recombinant wild type SEB with …
Assay: western blot of SEB bound to transfected cells
Conditions: both partners purified

Binder | binding result
[dA]HVKGKHLCP[dA] (source: synthetic peptide) [p1TA (HVKGKHLCP; CD28 116-124), form for biological assays] | binds
ASPMLVAYDA (D-Ala at both termini, source: synthetic peptide) [p2TA (SPMLVAYD; CD28 8-15), form for biological assays] | binds
